Source: US20190367620A1 (Merck KGaA, published 2019)
Residue numbers refer to the chain shown, from its start.

Key:
[1] = target: T1, FGFR1 on NCI-H520 cells (human, UniProt P11362 22-822); test: cell-based or functional assay
[2] = target: T2, Human FGFR1 D2-His6 (human, UniProt P11362 22-254); test: ELISA, antibody titrated on FGFR1 Ig-D2, O.D. 450 nm [panel FGFR1 Ig-D2]
T2 construct: also called D2 domain; F3FR1c-D2
T2 sequence: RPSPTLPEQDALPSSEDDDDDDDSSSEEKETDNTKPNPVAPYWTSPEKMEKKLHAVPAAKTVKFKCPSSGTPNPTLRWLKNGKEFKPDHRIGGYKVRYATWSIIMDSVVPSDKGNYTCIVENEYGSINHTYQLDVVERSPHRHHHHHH

[3] = target: T3, muFGFR1a-IIIc (mouse, UniProt P16092 22-376); test: SPR (Biacore 4000), antibody captured, His-tagged FGFR1 injected; no unit in the table, nM inferred from paragraph 90
T3 construct: Bought, His6 tag; also called mouse FGFR1a-IIIc His6-tagged; murine FGFR1a-IIIc
T3 sequence (looked up): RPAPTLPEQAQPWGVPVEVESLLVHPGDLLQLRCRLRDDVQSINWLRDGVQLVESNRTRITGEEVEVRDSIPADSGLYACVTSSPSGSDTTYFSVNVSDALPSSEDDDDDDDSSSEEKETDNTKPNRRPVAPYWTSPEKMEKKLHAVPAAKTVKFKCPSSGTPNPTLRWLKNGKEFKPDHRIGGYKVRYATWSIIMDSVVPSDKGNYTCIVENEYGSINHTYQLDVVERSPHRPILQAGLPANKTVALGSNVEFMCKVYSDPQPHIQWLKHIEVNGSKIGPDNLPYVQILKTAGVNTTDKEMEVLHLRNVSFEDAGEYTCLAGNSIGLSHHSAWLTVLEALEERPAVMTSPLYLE
Method: (§1) Binding affinities of anti-FGFR1 antibodies to FGFR1 were measured by Surface Plasmon Resonance (SPR) using a GE Healthcare BIAcore 4000 instrument as follows. Goat anti-human Fc antibody (Jackson ImmunoResearch Laboratories #109-005-098) was first immobilized on BIAcore carboxymethylated dextran CM5 chip using direct coupling to free amino groups following the procedure described by the manufacturer. Antibodies were then captured on the CM5 biosensor chip to achieve approximately 200 response units (RU). Binding measurements were performed using the running HBS-EP+ buffer. A 2-fold dilution series of His-tagged FGFR1 proteins were injected at a flow rate of 30 μl/min at 25° C. Association rates (kₒₙ, per mol/s) and dissociation rates (koff, per s) were calculated using a simple 1:1 Langmuir binding model (Biacore 4000 Evaluation Software). The equilibrium dissociation constant (KD, mol) was calculated as the ratio of koff/kₒₙ.

[4] = target: T4, rheFGFR1a-IIIc (rhesus monkey); test: as above
T4 construct: Bought, His6 tag; also called rhesus monkey FGFR1a-IIIc His6-tagged
Method: as §1

[5] = target: T5, ratFGFR1a-IIIc (rat, UniProt Q04589 22-376); test: SPR (Biacore 4000), antibody captured, His-tagged FGFR1 injected
T5 construct: Bought, His6 tag; also called rat FGFR1a-IIIc His6-tagged
T5 sequence (looked up): T3 sequence (looked up) with V53A, S83N, N164S, V287D
Method: as §1

[6] = target: T1, FGFR1 on NCI-H520 cells; test: cell-based or functional assay; remark: listed apart in the source
[7] = target: T6, human FGFR1b-IIIc extracellular domain with a HIS tag (human, UniProt P11362 22-376); test: SPR (Biacore 4000), antibody captured, His-tagged FGFR1 injected; differs from the cell of Table 1
T6 construct: also called huFGFR1b-IIIc; hFGFR1b-IIIc
T6 sequence: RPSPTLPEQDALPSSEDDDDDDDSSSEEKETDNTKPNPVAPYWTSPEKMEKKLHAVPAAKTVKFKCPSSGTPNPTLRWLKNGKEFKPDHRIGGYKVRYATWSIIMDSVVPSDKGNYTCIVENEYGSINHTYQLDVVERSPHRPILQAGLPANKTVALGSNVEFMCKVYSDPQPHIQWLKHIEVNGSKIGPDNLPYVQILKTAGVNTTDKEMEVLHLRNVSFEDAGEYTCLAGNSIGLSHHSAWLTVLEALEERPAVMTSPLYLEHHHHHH
Method: as §1

T1 sequence (P11362 22-822): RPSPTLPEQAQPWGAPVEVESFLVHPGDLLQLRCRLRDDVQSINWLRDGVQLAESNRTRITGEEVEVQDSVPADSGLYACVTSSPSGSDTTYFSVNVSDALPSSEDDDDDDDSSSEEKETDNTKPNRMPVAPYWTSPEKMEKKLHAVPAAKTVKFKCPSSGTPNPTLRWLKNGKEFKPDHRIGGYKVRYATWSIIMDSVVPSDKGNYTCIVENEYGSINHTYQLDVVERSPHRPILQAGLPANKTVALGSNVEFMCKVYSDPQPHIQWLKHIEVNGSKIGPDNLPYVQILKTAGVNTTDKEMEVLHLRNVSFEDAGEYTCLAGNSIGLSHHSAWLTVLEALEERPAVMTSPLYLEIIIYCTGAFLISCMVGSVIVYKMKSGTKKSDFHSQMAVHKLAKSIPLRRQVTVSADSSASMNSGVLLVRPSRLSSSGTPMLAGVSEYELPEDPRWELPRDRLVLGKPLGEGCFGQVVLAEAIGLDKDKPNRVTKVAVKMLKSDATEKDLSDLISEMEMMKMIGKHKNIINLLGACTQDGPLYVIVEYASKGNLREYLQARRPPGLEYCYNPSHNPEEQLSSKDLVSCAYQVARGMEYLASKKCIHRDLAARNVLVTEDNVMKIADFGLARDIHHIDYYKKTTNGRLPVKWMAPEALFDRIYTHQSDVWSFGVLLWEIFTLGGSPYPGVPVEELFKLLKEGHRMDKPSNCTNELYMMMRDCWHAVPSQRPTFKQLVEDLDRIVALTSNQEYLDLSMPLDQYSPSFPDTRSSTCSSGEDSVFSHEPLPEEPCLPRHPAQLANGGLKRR

IC50, pFGFR1 inhibition in NCI-H520 cells, FGF1, IgG1 (asterisk: partial response) [1]: 8e-09 M | IC50, pFGFR1 inhibition in NCI-H520 cells, FGF2, IgG1 [1]: 3e-09 M | IC50, pFGFR1 inhibition in NCI-H520 cells, non-stimulated, IgG1 [1]: > 1e-06 M | Kd [3]: 1.6 nM | Kd [4]: 0.51 nM | binding result [5]: no binding | IC50, inhibition of P-FGFR1 in NCI-H520 cells, FGF1 stimulated (asterisk: partial response) [6]: 1 nM | IC50, inhibition of P-FGFR1 in NCI-H520 cells, FGF2 stimulated [6]: 1 nM | Kd [7]: 0.01 nM
B1: mAb #A05 (antibody, V domains shown)
VH: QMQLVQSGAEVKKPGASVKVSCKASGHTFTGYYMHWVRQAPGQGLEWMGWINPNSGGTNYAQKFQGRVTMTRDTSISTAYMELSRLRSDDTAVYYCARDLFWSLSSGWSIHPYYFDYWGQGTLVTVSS
VL: QSALTQPASVSGSPGQSITISCTGTSSDVGSYNLVSWYQQHPGKAPKLMIYGGSKRPSGVPDRFSGSKSDTSASLTISGLQAEDEADYYCCSYTYNGDVFGTGTKVTVL
notes: also called #A05 hit; A05 (IgG1)
binding result [2]: no binding (tested: about 0.7 nM (Log(nM) about -0.15))
